Assay results reported in the DeepSol protein solubility set.

Assay: soluble on expression in E. coli; label from the status in PepcDB or PDB records

Row | Sequence | soluble on expression in E. coli
1 | MSSPGGGTRFALVAGTTETAGRAGISAAGADPELMSVTPAADAELVTYGTPVRTDVTPVSPSGCPTPALVTRAAREVLGFDVTVVDGGLAEKTGAPTVSVGARPGKDIAEQDPVSTAHGAFAAARQFGQSLPADELYLGETIPGGTTTALGVLRALGEDGMVSSSLPENPTAQKSEVVAEGLQASSLEPGDAANEPKRAVRRMGDPVLATLAGLTAGAVESDTAVTLAGGSQCVAVAALVRHGGYEGPLGLATTSYVADDESADVRASVDRLDLDLTVTDPGFDRSDHVAMERFVAGEAKEGVGMGGALALADRAGIPMAEVRDRFAAIYDDLIGDAPTATAEERT | not soluble
2 | MSLTPATRNNDSAVAVADAFDDTGDGPPTAARFAALAACWRQPDDDLQAALAAETDTTVDAQSLRAEYTRLFVGPGPSQSPPYESVYRDGERDADLGPVYGSSTQAVARWYSEYGLQPAASESAPPDHLATELEFAAYLREHEGAETLEQFLTEHPRNWVESFARRVRDADPKPFYRTLLNVTVDTLARADTPLEGHHHHHH | not soluble
3 | MSIATQEFDAIVIGAGGAGLRASFQLSQSGFKTAVVSKVFPTRSHTVAAQGGIAAALGNIEFDDGLPSDDWKWHMYDTVKGSDYIGDQDAIEYMCEHAPQSIIELEHMGMPFSRLKNGKIYQRAFGGMSRNYDPANQAERTCAAADRTGHALLHTLYQGNLAHKTDFYTEWFAVDLVKADDGSIAGVIALCIETGETVFLKAKITILATGGAGRIYESSTNAYINTGDGMGLALRAGLPLQDMEFWQFHPTGIAGAGVLVTEGCRGEGGVLRNKDGERFMERYAPNAKDLACRDVVSRASQQEIMEGRGDTFSGTSCVWLDLTHLGEDVINERLPTVRELGRTFAGIDPVEKPIPVVPTCHYQMGGIPTNKHGQVITQVDGKDKVIGGLYAVGECASVSVHGANRLGSNSLLDLVVFGRAAGMHAEQSLKEGMPMKEVSQENIEKATARITKWDTSEQRGCKEKISELRKELQRVMQQYFSVFRQESTMKEGLDKLFNIRERLDNAVLEDNSRIFNMMRIEALELDNLVLTAIATAKLALERKESRGAHSRVDYPERDDKNWMKHTLYFLEGDRTSLRDVNMSPTKVKAFQPAERKY | not soluble
4 | MGSDKIHHHHHHMDEQLEQLMRQLSGLNEQVRNGAVYQSLGTRLGKLMDGIQRRRRTAVVLPDDQDGVKDVLAELRHQLEQNVPVTLTHEKLTLLTAHLSSTDMALRYQGINFTLYDALQQDALDSAQMAFLLDELSRPDALFSHILEPANTAVFGRSARVAMLAVILHFVTPDVQSHTPDLRRIVILAAMYLCLETDTRGFVNQHGWAHAFTAITDLLTVLAGTEALPRADKLFLMMTLLERVKRLNTPLIYGENDRMAMYLSELANRHQLYADTLLLSLKQWRQQVALHRRPDTIAGWNRFFNRKRLLDSLRLQSELPASLQKYLNSTIDFLG | not soluble
5 | AFYYLSNFERALAWLAERYDDVLDAGEHAFVGAFGALPRASRALLVRMLMRKGPMFRASKLAYDEIGCPLAAAAPLVALGWIDPEPPLSLDALFALATKPELRDAFPDAPASGAVRKADWLDALRARHDGERPWAQWLPSIDDRVLRVTAAVDALCSRLRLMFFGNLHQDWSEFVLADLGLLQYETVAFAPSSRAFQRRDDVDAYLRLHACRELLEVWPADAPLAPLVEAAAAVDCGNAWLAMRRAKLTFSIGQACERRADWDGALAAYASSAWPGSRQRRVRVLERCERFDTALALADEAARAPENEAEAQQIARMLPRLRRRVGLPAGRAARAREIPRDSLELAHPGVPYPVEYVARDHLSRADAPVFYVENALINSLFGLLCWEPVFAAVPGAFFHPFQRGPADLHAPDFRARRAAQFDACLAQLDGTQYRDTIRRHYARKRGVQSPFVFWGALDETLLEHALACLPAEHLRLWFERLLDDVRGNRSGLPDLVRFWPAERRYELIEVKGPGDRLQDNQIRWLDYCVRHRMPVRVIDVRWSGDAQASSQDEGAL | not soluble
6 | MGSDKIHHHHHHMSGRTMSSIYILWDASHIWGLLAWRTAQSLDLPYRLVRGEEIAQGLLSGKPPALLLVPGGNARMKSVALGAAGMQAIRDYVRGGGAYVGFCGGAGLGLSGSEGLGLCPWGRARFTDRMQHFVSGHVHARVARGHDLVPADLCTDACAEPPVPIWWPGRFAPEKTGDVEVLATYTTPCDDFWVADLPLDTLPPGTFSEWESLYDIRLRPTFLEDQPCILSGRYGKGRYVLSYTHLETPDSPTANRWLLHIIRTLGGIEPPLQRVPAWDLENQQAAWLDPDLLHARGIFDDIVTIGRNHCLFFKRNAWLIGWRAGIPGANLNNLYAAVVTAVSNPPTAECTAYWQEQRQPFMRKLALFHEGVKGYLLAERLAMTLSKTFPETVSRESLRNQRAALFGPPMDSGGLYQELLDTLDELLYRQLPHGL | not soluble
7 | MAHKGTESKEQIWPYKITIGICAMNRKATSKPMRAIMKKIIDFYGQWVDSFIFPEQVIINEPVENWPLCHCLVSFHSTEFPLEKAIAYVKLRNPYVINNLDRQYDLLDRRTVFKILSDNGIEHPRHGYVIRGRPNEPDTELVEHPDHIEVNGEVFNKPFVEKPISSEDHNVYIYYPSSVGGGSQRLFRKINNRSSWYSPKSEVRKEGSYIYEEFIPADGTDVKVYAVGPFYAHAEARKAPGLDGKVERDSDGKEVRYPVILSNKEKQIAKKIVLAFGQTVCGFDLLRANGKSYVCDVNGFSFVKTSTKYYEDTAKILGNQIVRHYAKSKNWRVPSDMPQPPILDLGLGDDPPMITTPSGKLAELRCVVAVIRHGDRTPKQKMKLIVTDQRFFALFEKYDGYKKHEIKMKKPNQLMEVLELARALVIEKQRDRHQILEKLREGTGEEEIHKSEHDLEVCEEEMKKWEQMRTVLEMYGHFSGINRKVQMKYLKERETKTSDEELRREGPALLLILKWGGELTTAGNMQAEALGRLFRTLYPGIRRTDGKSSPEDTQGLGFLRLHSTYRHDLKIYASDEGRVQTTAAAFAKGLLALEGELTPILMQMVKSANTDGLLDDDCQARLYQTELKRYLHKALQADRDFTPQDYLELNPNGLRAITAAMEFIKNPRKMCHEIAGYVEKMCGVIVEYSQTRPTGSTLYLQESMDLAQRRWNKELREFRRKNKHGEVEFDISKIPDIYDNIKYDMEHNPDLCINNEVEFERMYVCVKNMADIVVPQEYGIKTENKMVIAQRVCTPLLRKIRNDLHRCLENKESEETQTRLDPRASQGIATPFRHVRTRLYFTSESHIHTLMNLIRYGNLCSVDDKKWQRAMNFLSGVTEFNYMTQVVLMVYEDSRKENDEADTGPRFHIEILFSPGLYPCFLTEKERIYETRFNLSTNPKPATSSRSSGRESRDTNDSASSSTEGRRPSIEKVVTVVTPTQLSTPSVTNDDLSISSNAESTAAESTGLVNTTTKTHNDSEDDLNDVESVNLVALDELNNTTKASQRGSFHVTEPIQIDEKTRRYFPYRFKHHTAQLLTGMSGGGVHMQNRLISTDVLTGKFGDHDNKKNSRKDFGAGTAVLSTAVIARSSSAPRLMTYESEDFSVGEIKRFWPPLRSLETLHDSINLSQFDGFLERLIKGALTPLPSPPKTPLPSALSCDAINKTPTQDEVEKVIGKLAPTSSTD | not soluble
8 | MGSDKIHHHHHHMPSLFSLYRKIFFGRKPGWDQQPLPHIKVTAPHVTVSETKVSQYAQVCGFQFDGKVLPPTYLYVMAFRLHAVIFTHDGITFPLLGMIHLKNRIQVYRPVTVDETFSLECALTTSRETDSGLEFEFVSKAFVGEELVWESLSTYLYRIDVAGRRVRPPKAIDMAWETPQSWRLSEDLGRRYAKASGDYNLIHLHPVLSKRFGFDRVLAHGMWSKARCLAELMPSIGDRPFTVDVTFKLPLLMPADVGFGYEQNTDNMVFELRDSKGRRPHLSGDVQF | not soluble
9 | MRTFCILKDFKIFIIFFLQNPCGGEGLNILERIAKEVQEETKVRLHARNVERVLQALLKTGDFWKIVDYSDLPVPAASGIIKKFLDEGIVFIDENENILFTQKGLDLVKELGIEPFEEHKCRACEGRGIPFYDDKELYRTFVEIAKDRPKPVQQYDQGSVTPETTVSRVLFLDSRGDLRGKEIIVMGAEDDLTGLAIALTRKAKRVLIIDIDERLIDFDNRIIKELGIDNAEAMVWDLRNPYTEDFLGKFDVFITDPPETFAAFRAFIGRGIATLKDAGCAGYFGLTLRDSSIFRWKEFQEILINEYGVVITDIIQDFNDYMNWEYHPETRAAQIAPVKKNPTDIWYRSAWYRIETLPGFKRWNEPISDEVFYLDEEGSTT | not soluble
10 | MNTTEFDGISHAEGLCDKEFIGKAISYLYRYGQIYIGKKIEPYGIGSGQFPFLMRLYREDGINQESLSDYLKIDKGTTARAIQKLVDEGYVFRQRDEKDRRSYRVFLTEKGKKLEPDMKKIASEWGEILFSSFDDRQRREITNSLEIMFENGLKIM | not soluble
11 | MALLPFFDLTNFESDASEELGWLKYVGRVQTRVFPQHFKDNLEKVRKISETIDVIVDTTAELGPEACVNLLNAGALAILVNEEMLNELADISPNRLVLKTDTTDIGKIEKLSQVAGSIQWIGSAENYPPDFFERASKIIHKAVMPEGGGRTLYLEFPEQPSMEVLKSFSVHSVVPVLSSSFLTVKPAEEPKKLSLADLILISANTDREDGLFSTLVVNELGIALGLVYSSKESVAESLKTGTGVYQSRKRGLWYKGASSGAVQHLIHIDVDCDEDCLRFVVYQTGKGFCHLDTLHCFGQASGLCQLEKTLIDRKNNAPEGSYTARLFSDPKLLRAKIMEEAEELCDATTKENVIWEMADLMYFAITRCVGSGVSLNDISRHLDLKHRKVTRRKGDAKVAWQEKLKDKGGVANTSYTA | soluble
12 | MKFRQKHEDFIVNEILEYELNDYGNYFLYKLQKNGIENLKAISYLSKNFEVPTKEIGYCGLKDRHAITTQYVSIPKEYGKLSLDEDNLKLEYVGTIEKPLKIGRLYGNRFEIIARAVDKDEFLKIADNIRNLSSGAPNYYDDQRFGSVFNGKFIAKEILKGNYEEVVKILLTSYTKSEKKQLKDLKRFIAKNWGNWDECLEYIDKKQIRSKMFRNMVKSLTYENDFKKAFKYVDNRLKELFISAYQSYLWNECLKEFLKEVIPKENRIYVDYSCGTFLFYENIEEELFDKLKEMDFPTIVSDVEYTDPEKRIIKAILKKERIKISDFEKLDFGKLKYTKRPIISIPEDVNTGKFKSDELNSKKYKIDLEFSLKKGSYATIILKRVFNILLEHHHHHH | soluble
13 | MSLRVFLTGATGFVGSHVLKELLAAGHQVTGLTRSDAGGRWLVQAGASVHRGTLEDAGSLARGAEQADAVIHTAFDHVFSRYLENCAKDARVISAMAEVLKGSNRPLIITSATGIGAPGAGLPAVEEVVDWAHALPRIASERAGREAADKGVSVAVVRLPQVHDTEKQGLISPLIDIGRAKGVSAYVGDGSNHWSAVHIDDAARLYRLALEHHEAGARYHAVAEEGVSMRQIAETIGAGLGVPVLALQADEVVGHFGWLAPFMAMDMRASSAATRRRLNWTPTGPDLLTDLKAMDYRKLRTASEGHHHHHH | soluble
14 | MGSDKIHHHHHHMKRQAKIEIQNALVDLMAEYPFQEISTKMICAYCNINRSTFYDYYKDKFDLLDTINSKHKEKFQFLLSALHHNFENIKQDKLKLYKFFIIIAKYIKHNEQFFKDILVTYPMKTLFIDYINLARDYYQQIMNDYSTTVTNKQLYVTYIIGGQAGVFINWLSNGCNESPEEVADILLANTIKLQIQ | not soluble
15 | MGSDKIHHHHHHMDHRQTFLSRYDTAACKAAHEIISCYSTSFGLATKLLRGRIRTDISNLYAMVRIADEIVDGTAQMAGLEPNAVSQLLDDYEAAVLAAPTQRFHADPILHAWALSARRCKFKTEHVQAFFTSMRNDLHKHNYEAAEFNEYVYGSAEVIGLMCLDAFLVEQHPRPHERTMMEHGARSLGSAFQKINFLRDLEEDTHVLGRNYFPQLTGELTDATKALLVADIRTDLAAAYRCIPLLPFDARVGVQAAADLFTALTDRIQEASAVEVTHTRIRIPKAQKIAIITRAPWRALHG | not soluble
